{"source": "paper PMC12152837", "about": "“Semaglutide Aggregates into Oligomeric Micelles and Short Fibrils in Aqueous Solution” (Biomacromolecules, 2025)", "key": {"[1]": {"assay": "ESI-MS integrity and appearance of solution after aging", "type": "physicochemical", "procedure": "Semaglutide was purchased from Bioserv (Calibre Scientific, Rotherham, UK). The purity by HPLC was >95%, and it was supplied in nonsalt (base) form. The molar mass is M = 4115.7 g mol^–1 (4113.6 g mol^–1 expected). Purity (by HPLC) is >98%.\n(§1) Semaglutide powder was weighed, and the samples were prepared in glass vials using ultrapure water. To monitor the aggregation and stability, some samples were left to age up to 40 days in the fridge at 4 °C, protected from the light. The pH was observed just after preparation and after 40 days of incubation at 4 °C using pH strips due to the small volume of sample available. No evidence of microemulsion formation was observed. ^20 pH values were recorded as follows: 1 wt % fresh pH 5.5, 1 wt % aged: pH 7, 0.1 wt % fresh: pH 6.5, 0.1 wt % aged: pH 7. It is notable that the pH crosses the pK a of the N-terminal histidine (pK a = 6 is the accepted value for isolated histidine) for the more concentrated solution upon aging."}, "[2]": {"assay": "Nile red fluorescence assay of critical micelle concentration", "type": "physicochemical", "conditions": "45-day aged sample in water, stored at 4 °C; 5 μM Nile red, λexc 550 nm, peak fluorescence intensity at 635 nm versus concentration", "procedure": "Fluoroscence of tryptophan in semaglutide was excited at λexc= 295 nm, and fluorescence emission spectra were measured using a Cary Eclipse spectrofluorometer (Agilent, Didcot, UK) with excitation and emission slits of 5 nm. The spectra were recorded from 300 to 600 nm. The temperature was maintained at 20 °C during the measurements. This protocol was performed using fresh Semaglutide samples and then repeated using the same samples stored at 4 °C for 40 days, protected from the light. To determine the critical aggregation concentration (CAC) of semaglutide using Nile red, Semaglutide samples (45-day aged) were prepared in 5 μM of Nile red. The wavelength for excitation was set at λexc = 550 nm with 5 nm windows, and spectra were collected from 570 to 750 nm.\nSI Fig.S13. Nile red fluorescence assay of critical micelle concentration (CMC) for a\n45-day aged sample. (a) Plot of peak fluorescence intensity (l = 635 nm) versus\nconcentration, (b) Original fluorescence spectra.\nFluorescence Intensity (l635 nm)\nFluorescence intensity / arb. units […]"}, "[3]": {"assay": "Small-angle X-ray scattering (SAXS) of aggregates in water", "type": "physicochemical", "conditions": "for effective charge modulus per micelle z eff: Hayter–Penfold structure factor fit; for micelle inner core radius Ri / micelle outer radius Ro ± Gaussian polydispersity: core-shell sphere form factor", "procedure": "as §1\nSAXS experiments were performed on beamline B21 at Diamond Light Source (Harwell, UK) and SWING at synchrotron SOLEIL (Gif-sur-Yvette, France) and on the labSAXS instrument at Diamond Light Source.\nOn B21, the sample solutions were loaded into the 96-well plate of an EMBL BioSAXS robot and then injected via an automated sample exchanger into a quartz capillary (1.8 mm internal diameter) in the X-ray beam. The quartz capillary was enclosed in a vacuum chamber to avoid parasitic scattering. After the sample was injected into the capillary and reached the X-ray beam, the flow was stopped during the SAXS data acquisition. Beamline B21 operates with fixed camera length (3.9 m) and fixed energy (12.4 keV). The images were captured by using a PILATUS 2 M detector. Data processing was performed using the dedicated beamline software ScÅtter. […]\nSAXS experiments (extending to higher q) were also performed using a lab-based Xeuss 3.0 (Xenocs, France) instrument at Diamond Light Source, equipped with a liquid gallium MetalJet X-ray source (Excillum, Sweden) with an energy of 9.24 keV, corresponding to a wavelength of 1.34 Å. SAXS patterns were measured for 28800 s with an incident X-ray photon flux of roughly 4.06 × 10^6 ph/s on an EIGER2 R 1M detector (Dectris, Switzerland), and the sample-to-detector distance was set to 315 mm, giving a q range of 0.17–1.1 nm^–1. The beam size is roughly 0.4 × […] on the sample. The sample environment was a custom-designed low-noise flow-through cell having a thickness of roughly 0.7 mm and an area of 1.1 mm × 1.1 mm. The window material is silicon nitride. Silver behenate (layer spacing, d = 58.38 Å) was used to calibrate the SAXS data. SAXS images were analyzed using the IDL-based AXcess software package or software DAWN.\nThe association number of the micelle can be obtained in a model-independent fashion from the forward scattering intensity of the SAXS data in dilute solution. , The measured synchrotron SAXS data presented here is in absolute units (cm^–1) and the forward scattering (at q = 0) can be written as 1 I(0)=cmicMmic[r0vp(ρl−ρ0)]^2/NA Here, c mic is the concentration of micelles, M mic is the micelle molar mass, r 0 is the classical electron radius [0.28179 × 10^–12 cm e ^–1], v p is the partial specific volume, and ρl and ρ0 represent the lipopeptide and solvent (water) electron density. […] Rearranging eq gives 2 Mmic=I(0)NA/cmic[r0vp(ρl−ρ0)]^2 […]\nTable S1. Fit parameters to the SAXS data in Fig.2b using a core-shell sphere form form factor with the Hayter-Penfold RMSA structure factor.1 The monodisperse approximation to factor the form and structure factors of isotropic solutions of centrosymmetric particles is assumed. Fitting performed using SASfit.2-3 […]\n(Diamond synch.) (Diamond synch.) (Diamond synch.) (Lab SAXS)b […]\nKey: Core-Shell Sphere Form factor: Ro: outer radius (σc Gaussian polydispersity in R0), Ri: inner radius, µ: ratio of scattering contrast of inner core/outer core, η: scattering contrast of core. Structure factor: RHS, hard sphere radius, φ: effective volume fraction zeff: effective charge modulus, I: ionic strength (temperature fixed at T = 293 K).\nGaussian coils: Rg: radius of gyration, Ic: intensity. Background: BG (constant). […]"}, "[4]": {"assay": "pH of aqueous solutions (pH strips)", "type": "physicochemical", "procedure": "as §1"}, "Caco-2 cells": {"system": "Caco-2 cells", "assay": "Transepithelial electrical resistance (TEER) transwell permeability assay", "type": "cell-based", "conditions": "Caco-2 monolayer on transwell, DMEM without serum, 37 °C, pH 7.4, duplicate wells, relative to DMEM control", "procedure": "As a model of the gut epithelium, 1.5 × 10^5 Caco-2 (ATCC, EUA) immortalized colorectal adenocarcinoma cells were seeded into 12 mm Millicell hanging cell culture transwells, with a PET lower membrane permeated by pores 0.4 μm in diameter. The transwells were then inserted into a 12-well plate to create a bicameral chamber system separated by the transwell PET membrane. The cells were cultivated until reaching confluence in DMEM supplemented with 10% FBS for at least 3 weeks before starting the TEER assay in order to form semipermeable membranes composed of Caco-2 cells separating the two chambers. For the TEER assay, a multimeter (TLC Electrical, UK). The microelectrodes were immobilized in a chopstick pattern and coated in carbon conductive ink to prevent corrosion, similar to previous reports using low-cost Volt-ohmeters for TEER. −\nThe resistance for the Caco-2 membrane tissue (R tissue) is measured in Ohms (Ω) and defined as Rtissue=RTotal−RBlank\nThis represents the total resistance of the system containing the semipermeable membranes minus the initial resistance from the cell containing only media or PBS. […]\nThe area calculated for the transwells used in this assay is M Area (cm^2) = 1.12 cm^2. […] The TEER was calculated and is reported as % values relative to controls incubated without semaglutide."}, "[5]": {"assay": "Cryogenic-TEM imaging of aggregates", "type": "physicochemical", "procedure": "as §1, with “To monitor the aggregation and stability, some samples were left to age up to 40 days in the fridge at 4 °C, protected from the light.” left out\nImaging was carried out using a field emission cryo-electron microscope (JEOL JEM-3200FSC), operating at 200 kV. Images were taken in bright field mode and using zero loss energy filtering (omega type) with a slit width of 20 eV. Micrographs were recorded using a Gatan Ultrascan 4000 CCD camera. The specimen temperature was maintained at −187 °C during the imaging. Vitrified specimens were prepared by using an automated FEI Vitrobot device using Quantifoil 3.5/1 holey carbon copper grids with a hole size of 3.5 μm. Just prior to use, grids were plasma cleaned using a Gatan Solarus 9500 plasma cleaner and then transferred into the environmental chamber of a FEI Vitrobot at room temperature and 100% humidity. Thereafter, 3 μL of sample solution was applied on the grid, and it was blotted twice for 5 s and then vitrified in a 1/1 mixture of liquid ethane and propane at a temperature of −180 °C. The grids with vitrified sample solution were maintained at liquid nitrogen temperature and then cryo-transferred to the microscope."}, "[6]": {"conditions": "0.5 wt % in water, aged 40 days, Diamond synchrotron"}, "[7]": {"conditions": "0.5 wt %, aged 40 days, Diamond synchrotron, fixed for the fits"}, "[8]": {"conditions": "1 wt % in water, aged 40 days, Diamond synchrotron"}, "[9]": {"conditions": "1 wt %, aged 40 days, Diamond synchrotron, fixed for the fits"}}, "note": "Where “and” joins values, the source holds several entries; their conditions need not be identical. Equal values may be shown once.", "data": [{"substance": "Semaglutide", "values": [{"measurement": "chemical stability in solution (degradation)", "setting": "[1]; aqueous solution, 40 days of aging at 4 °C protected from light, ESI-MS", "result": "No evidence for degradation in solution was observed"}, {"measurement": "appearance of solutions", "setting": "[1]; solutions in pure water prepared in glass vials", "result": "transparent"}, {"measurement": "critical micelle concentration (CMC)", "setting": "[2]", "result": "0.06 wt % and 0.06 ± 0.005 wt %"}, {"measurement": "radius of gyration Rg (Gaussian coils)", "setting": "[3]; 0.1 wt % in water, aged 40 days, Diamond synchrotron", "result": 1.57, "unit": "nm"}, {"measurement": "micelle molar mass M mic", "setting": "[3]; 0.1 wt % in water, aged 40 days, from SAXS forward scattering I(0) = 0.0025 cm^–1", "result": 9111, "unit": "g mol^–1"}, {"measurement": "association number p", "setting": "[3]; 0.1 wt % in water, aged 40 days, from SAXS forward scattering I(0), p = Mmic/Mmol", "result": "≈ 2.2"}, {"measurement": "hard sphere radii R HS from the structure factor", "setting": "[3]; 0.5 and 1 wt % aged solutions", "result": "2.23–2.54 nm"}, {"measurement": "hard sphere radius RHS", "setting": "[3]; [6]", "result": 2.23, "unit": "nm"}, {"measurement": "effective charge modulus per micelle z eff", "setting": "[3]; [6]", "result": 9.81}, {"measurement": "micelle inner core radius Ri", "setting": "[3]; [7]", "result": 1.50, "unit": "nm"}, {"measurement": "micelle outer radius Ro ± Gaussian polydispersity", "setting": "[3]; [7]", "result": "2.31±0.59", "unit": "nm"}, {"measurement": "hard sphere radius RHS", "setting": "[3]; [8]", "result": 2.54, "unit": "nm"}, {"measurement": "effective charge modulus per micelle z eff", "setting": "[3]; [8]", "result": 10.8}, {"measurement": "association number p", "setting": "[3]; 1 wt % in water, aged, rough estimate from the ratio of low-q intensity for 1 and 0.1 wt %", "result": "12–15"}, {"measurement": "hard sphere radius RHS", "setting": "[3]; 1 wt %, Lab SAXS", "result": 2.54, "unit": "nm"}, {"measurement": "radius of gyration Rg (additional Gaussian coil term)", "setting": "[3]; 1 wt %, Lab SAXS, term for high q scattering", "result": 0.8, "unit": "nm"}, {"measurement": "effective charge modulus per micelle z eff", "setting": "[3]; 1 wt %, Lab SAXS", "result": 9.00}, {"measurement": "micelle inner core radius Ri", "setting": "[3]; 1 wt %, Lab SAXS", "result": 1.50, "unit": "nm"}, {"measurement": "micelle outer radius Ro ± Gaussian polydispersity", "setting": "[3]; 1 wt %, Lab SAXS", "result": "2.31±0.59", "unit": "nm"}, {"measurement": "micelle inner core radius Ri", "setting": "[3]; [9]", "result": 1.50, "unit": "nm"}, {"measurement": "micelle outer radius Ro ± Gaussian polydispersity", "setting": "[3]; [9]", "result": "2.31±0.59", "unit": "nm"}, {"measurement": "micelle radius", "setting": "[3]; as determined from cryo-TEM and SAXS, aged solutions at sufficiently high concentration", "result": 2, "unit": "nm"}, {"measurement": "pH of solution", "setting": "[4]; 0.1 wt % in ultrapure water, aged 40 days at 4 °C", "result": 7}, {"measurement": "pH of solution", "setting": "[4]; 0.1 wt % in ultrapure water, fresh", "result": 6.5}, {"measurement": "pH of solution", "setting": "[4]; 1 wt % in ultrapure water, aged 40 days at 4 °C", "result": 7}, {"measurement": "pH of solution", "setting": "[4]; 1 wt % in ultrapure water, fresh", "result": 5.5}, {"measurement": "TEER, % of the initial TEER", "setting": "Caco-2 cells; aged (40 days, 4 °C) semaglutide 0.02 wt %, after 2–4 h", "result": "around 90%"}, {"measurement": "TEER, % of the initial TEER", "setting": "Caco-2 cells; fresh semaglutide 0.02 wt %, after 30 min", "result": "around 80%"}, {"measurement": "diameter of micelle-like structures", "setting": "[5]; 1 wt % in water, aged 40 days at 4 °C, cryo-TEM", "result": "< 5", "unit": "nm"}, {"measurement": "morphology by cryo-TEM, further aging", "setting": "[5]; 1 wt % sample aged 79 days, compared to the 40-day aged sample", "result": "no further change in morphology"}, {"measurement": "morphology by cryo-TEM", "setting": "[5]; freshly dissolved 1 wt % solution in water", "result": "irregular clustered morphology"}]}]}
